Source: patent US20240002498A1 (TENEOBIO, published 2024)
Numbering of substitutions follows the chain as printed.

B1: anti-FOLR1 heavy chain antibody (HCAb, UniAb) clone ID 352317 (antibody, V domains shown)
VH: EVQLVESGGGLVKPGGSLRLSCAASGFTFSSYSMNWVRQAPGKGLEWVSSISSGSSYIYYADSVKGRFTISRDNAKNSLYLQMNSLRAEDTAVYYCARDVTSGIAAAGSAFNIRGQGTLVTVSS
notes: Heavy chain-only antibody (no light chain), F14 family
B2: anti-FOLR1 heavy chain antibody (HCAb, UniAb) clone ID 352368 (antibody, V domains shown)
VH: B1 VH with T28N, S30R, Y32F, S33G, N35T, V37L, S109A
notes: as for B1
B3: anti-FOLR1 heavy chain antibody (HCAb, UniAb) clone ID 352477 (antibody, V domains shown)
VH: B1 VH with K76R
notes: as for B1
B4: anti-FOLR1 heavy chain antibody (HCAb, UniAb) clone ID 352391 (antibody, V domains shown)
VH: EVQLVESGGGLVQPGGSLRLSCAASGFSFSSYSMKWVRQAPGKGLEWVSYISSSSDTIEYADSVKGRFTISRDNAKNSLYLQMNSLRDEDTAVYYCASVGLDFDYRGQGTLVTVSS
notes: Heavy chain-only antibody (no light chain), F18 family
B5: anti-FOLR1 heavy chain antibody (HCAb, UniAb) clone ID 352491 (antibody, V domains shown)
VH: B4 VH with D62G
notes: as for B4
B6: anti-FOLR1 heavy chain antibody (HCAb, UniAb) clone ID 352496 (antibody, V domains shown)
VH: B4 VH with Q13K
notes: as for B4
B7: anti-FOLR1 heavy chain antibody (HCAb, UniAb) clone ID 352564 (antibody, V domains shown)
VH: B4 VH with S52T, D56S, D102E
notes: as for B4
B8: anti-FOLR1 heavy chain antibody (HCAb, UniAb) clone ID 352365 (antibody, V domains shown)
VH: B4 VH with D56S, S98T
notes: as for B4
B9: anti-FOLR1 heavy chain antibody (HCAb, UniAb) clone ID 352372 (antibody, V domains shown)
VH: B4 VH with D102E
notes: as for B4

Experiments:
[1] = biological target: T1, human Folate Receptor Alpha (FOLR1) on cells (human, UniProt P15328 25-234); test: cell binding, CHO cells stably expressing human FOLR1
T1 construct: whole, on cells; Endogenous on IGROV-1, OVCAR-3, SKOV-3, HT-29 cells; transfected on CHO cells; the cell is named under assay; also called FRα; FRa
T1 sequence (P15328 25-234): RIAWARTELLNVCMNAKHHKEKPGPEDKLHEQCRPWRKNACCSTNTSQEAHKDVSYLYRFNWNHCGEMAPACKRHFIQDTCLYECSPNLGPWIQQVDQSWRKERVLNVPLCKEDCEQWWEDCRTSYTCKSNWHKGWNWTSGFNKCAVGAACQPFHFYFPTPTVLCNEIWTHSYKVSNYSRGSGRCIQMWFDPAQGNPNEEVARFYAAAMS

cyno FOLR1 on CHO cells [2] = biological target: T2, cyno FOLR1 on CHO cells (cyno (Cynomolgus macaque), UniProt A0A2K5U044 25-234); test: cell binding, CHO cells stably expressing cyno FOLR1
T2 construct: whole, on cells; also called cyFOLR1
T2 sequence (A0A2K5U044 entry or part of it): as the sequence (P15328 25-234) above, with I2T, W4R, R37K, A146P, H171Y counted along it

[3] = biological target: T1, human Folate Receptor Alpha (FOLR1) on …; test: flow cytometry, CHO cells stably expressing human FOLR1
[4] = biological target: T1, human Folate Receptor Alpha (FOLR1) on …; test: cell binding, OVCAR-3 cells
CHO_huFOLR2 = biological target: T3, CHO_huFOLR2 (human, UniProt P14207); test: flow cytometry on CHO cells stably expressing human FOLR2, MFI fold over background
T3 construct: stably expressed on CHO cells; also called human FOLR2 on CHO cells; folate receptor beta
T3 sequence (P14207 17-230 limits assumed): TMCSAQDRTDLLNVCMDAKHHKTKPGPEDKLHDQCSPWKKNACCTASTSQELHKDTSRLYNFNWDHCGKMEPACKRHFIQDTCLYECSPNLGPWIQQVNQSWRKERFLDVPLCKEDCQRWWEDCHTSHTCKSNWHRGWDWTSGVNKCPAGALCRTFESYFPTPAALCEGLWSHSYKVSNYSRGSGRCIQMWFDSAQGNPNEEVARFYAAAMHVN
Procedure: Anti-FOLR1 HCAb binding to CHO cells stably expressing human FOLR2 (also known as folate receptor beta, FRβ), and CHO cells stably expressing human IZUMO1R (also known as folate receptor delta, FOLR4, FRδ, JUNO) was analyzed for a number of different clones. Data are presented in FIG. 2, panels A-B, as MFI fold over background. Insets show binding of positive control anti-FOLR2 and anti-IZUMO1R antibodies, respectively, in dark grey, compared to the respective isotype control in light grey.

recombinant human FOLR1 = recombinant human FOLR1 (human, UniProt P15328 25-234); test: BLI, Octet QK-384, recombinant human FOLR1
recombinant human FOLR1, sequence (P15328 25-234 limits assumed): as the sequence (P15328 25-234) above
Procedure: As used herein, the “Kd” or “Kd value” refers to a dissociation constant determined by BioLayer Interferometry, using an Octet QK384 instrument (Fortebio Inc., Menlo Park, CA) in kinetics mode. For example, anti-mouse Fc sensors are loaded with mouse-Fc fused antigen and then dipped into antibody-containing wells to measure concentration dependent association rates (kon). Antibody dissociation rates (koff) are measured in the final step, where the sensors are dipped into wells containing buffer only. The Kd is the ratio of koff/kon. (For further details see, Concepcion, J, et al., Comb Chem High Throughput Screen, 12 (8), 791-800, 2009).
Table 17 summarizes affinity and epitope bin information for anti-FOLR1 heavy chain antibodies (HCAbs). Column 1 indicates the clone ID of the HCAb. Column 2 indicates the affinity of the HCAb to recombinant human FOLR1 as measured by Bio-layer interferometry (BLI) using an Octet QK-384. Column 3 indicates the epitope bin of HCAb as determined by a competition BLI binding experiment using an Octet QK-384.

[5] = biological target: T1, human Folate Receptor Alpha (FOLR1) on …; test: flow cytometry, IGROV-1 cells
cyno FOLR1 on CHO cells [6] = biological target: T2, cyno FOLR1 on CHO cells; test: flow cytometry, CHO cells stably expressing cyno FOLR1
[7] = biological target: T1, human Folate Receptor Alpha (FOLR1) on …; test: cell binding, IGROV-1 cells

Binder	EC50 [1]	EC50 (cyno FOLR1 on CHO cells [2])	fold over background MFI [3]	EC50 [4]	binding result (CHO_huFOLR2)	Kd (recombinant human FOLR1)	fold over background MFI [5]	fold over background MFI (cyno FOLR1 on CHO cells [6])	EC50 [7]
B1	5.1 nM	5 nM	1220 fold over background	3.3 nM	binds	8.7 nM	711 fold over background	465 fold over background	3.9 nM
B2	3.8 nM	4.3 nM	1230 fold over background	3.1 nM	binds	32.9 nM	548 fold over background	179 fold over background	4.1 nM
B3	4.2 nM	4.2 nM	1590 fold over background	2.4 nM	binds	12.5 nM	1960 fold over background	362 fold over background	5 nM
B4	5.5 nM	2.7 nM	944 fold over background	2.8 nM	no binding (tested: 100 nM)	34.8 nM	646 fold over background	198 fold over background	2.8 nM
B5	4.3 nM	2.1 nM	1480 fold over background	3.3 nM	no binding (tested: 100 nM)	37.4 nM	1640 fold over background	159 fold over background	5 nM
B6	3.5 nM	4.3 nM	1410 fold over background	1.1 nM	no binding (tested: 100 nM)	41.8 nM	1740 fold over background	157 fold over background	3.8 nM
B7	5.4 nM	5.7 nM	816 fold over background	32.6 nM	no binding (tested: 100 nM)	81.1 nM	1790 fold over background	84.5 fold over background	3.7 nM
B8	3.8 nM	3.3 nM	906 fold over background		no binding (tested: 100 nM)	125 nM	594 fold over background	97.4 fold over background	4.6 nM
B9	4.6 nM	3.4 nM	1130 fold over background	4.9 nM	no binding (tested: 100 nM)	52.7 nM	506 fold over background	123 fold over background	3.6 nM
